Laboratory results as given in the RNAGym collection of RNA variant scans (doi:10.7554/elife.80360).

B1: Hairpin Ribozyme (parent)
chain: GUCCUCUUUCACGUGCGCGUGAAAGAGAGAAGUGAACCAGAGAAACACACGUUGUGGUAUAUUACCUGGUA

Variants of: B1
Assay: self-cleavage, relative activity (ratio to wild type); higher = more cleavage; co-transcriptional

Variant | self-cleavage
U8A U67G | 0.237
A24G A45G | 0.104
A64C C65U | 0.223
U5A A22C | 0.339
G34A U63G | 0.157
G32A C50A | 0.168
G27U G57U | 0.144
G29A U63G | 0.116
G17U A22G | 0.831
G54U G68C | 0.212
G54U G68A | 0.22
G34U A39C | 0.857
C16U C50U | 0.366
C12U G42U | 0.355
G42U C46A | 0.201
A30U G34C | 0.42
C4U A30U | 0.13
U7C A36G | 0.925
A35U C48A | 0.186
A35U C48G | 0.215
A39C A49C | 0.151
C4A G15A | 0.227
G27C G57U | 0.174
G19U G29U | 0.14

Variant | self-cleavage
A45C U67C | 0.128
C10G C38A | 0.168
G25A C37A | 0.199
C12A C38A | 0.18
U2A G17A | 0.274
A23C G40C | 0.0333
A39G A61C | 0.139
A39G A61G | 0.123
C18G A71G | 0.932
G25A G42U | 0.186
U8C U63A | 0.0901
A23U C38G | 0.167
C3U C12G | 0.471
C6A C18G | 0.43
A49U U58G | 0.15
C4U A35G | 0.304
A28C A64C | 0.245
C10G C12U | 0.503
G32A C38A | 0.115
C4A A35C | 0.127
C3U U67C | 0.122
U20C A45U | 0.076
G29A U60A | 0.137
U2A C65A | 0.222

Variant | self-cleavage
G21C G57U | 0.189
C46A G56A | 0.167
U7G A22U | 0.59
A31G U55C | 0.28
A11C A49C | 0.192
G13C G69A | 0.214
C18G A26C | 0.489
A26G A30U | 0.108
A26G G27A | 0.275
G29U U67C | 0.101
C6G G57A | 0.11
U33C G42C | 0.0894
C16A A22U | 0.816
U58A G68A | 0.272
G21U C37U | 0.373
G21A U63G | 0.118
A36G A44G | 0.276
U9G A30U | 0.0546
U14G U52C | 0.966
G25U U60A | 0.391
A28C G56U | 0.0871
U52G C66U | 0.474
A30G U33A | 0.0512
G21C U53A | 0.671

Variant | self-cleavage
A28C U52C | 0.584
U5A U7C | 0.107
A43U C50G | 0.107
A31U U67G | 0.0559
U2G U52C | 0.346
U14C G17C | 0.582
U55G G57C | 0.126
G13C G32C | 0.123
A61U U70A | 0.175
C48G U53G | 0.128
A43C C66G | 0.0604
G32A G42C | 0.124
G21U A44U | 0.165
A11C A44U | 0.155
C12G U14C | 0.61
A22G A26U | 0.528
U52A U63A | 0.424
C38G A44C | 0.17
G29A U53C | 0.234
G13C A43U | 0.0989
A28G A39U | 0.536
A36C C48A | 0.142
A64U G68A | 0.173
C18A U63C | 0.0808

Variant | self-cleavage
G25C A59G | 0.123
U8C C38U | 0.245
A22G A44U | 0.123
G25U U63G | 0.174
A23G G56C | 0.145
A23G G56U | 0.162
C37G A45C | 0.112
A11C A36C | 0.471
A23U U33A | 0.153
C16A A39U | 0.364
A26C G42U | 0.307
A44G A49U | 0.0347
A11U G51A | 0.799
G17U G19U | 0.581
C3U G32U | 0.102
A11G G40A | 0.291
G69A A71C | 0.912
A28C G29A | 0.199
U8G A28G | 0.843
C48G U63A | 0.181
U53C U60A | 0.635
G27U A31C | 0.205
U14A G25U | 0.521
U53G G56U | 0.223

Variant | self-cleavage
A47C U67C | 0.148
A41G U53C | 0.819
U7G G32C | 0.161
C4G A28C | 0.172
U2C | 0.171
U2G | 0.348
G1A C38U | 0.115
C16G U63G | 0.182
U14G G57C | 0.0955
U2A A41U | 0.54
U8A C18U | 0.779
C10A A59G | 0.149
A26C U58A | 0.623
A36G C66U | 0.482
C4U A44C | 0.102
G34U U62C | 1.23
A26G C46A | 0.0799
A24G A35G | 0.797
A49U U53G | 0.167
G21C A24C | 0.556
C48U U52C | 0.194
G1U C6A | 0.138
U5A U9G | 0.231
U5A U9A | 0.371

Variant | self-cleavage
G32A A59G | 0.189
G17A U52C | 1.11
U60A G68C | 0.236
U5A A26G | 0.244
C46A U63A | 0.12
U20G A39G | 0.27
U52C U60A | 1.14
C6A A47G | 0.157
C48G G68A | 0.226
G25C C37A | 0.281
G34C G69A | 0.896
U2G G68U | 0.2
G19A G25C | 0.419
C12G G27C | 0.226
A49G G69U | 0.148
C50G U55C | 0.16
A30C U67G | 0.109
A43C G69C | 0.196
A28G U62C | 0.302
C6U U33A | 0.148
C6A G15C | 0.586
U2G U63C | 0.142
C3U A23C | 0.408
